Test: label from the status in PepcDB records

Sequence	protein production
MCDAHLRGPSGIITSPNFPIQYDNNAHCVWIITALNPSKAGGDPGNIQCNKEGLSVETQSLRLRNRSCLLGNSKDNGCCVPNPVHGTGLQVIKLAFEEFDLERGYDTLTVGDGGQDGDQKTVLYILTGTSVPDLIVSTNHQMWLLFQTDGSGSSLGFKASYEEIEQGSCGDPGIPAYGRREGSRFHHGDTLKFECQPAFELVGQKAITCQKNNQWSAKKPGCVCK	failed
MCDRHQKLIRATDKPNFFGIDHYGFPEAGEHPADPPGYYPEYFSSERFQRLGYHVEELRGGFYWVTSGGYDAAFVVTSDGVVAIDAPPTIGENMLAAIEDVTDKPVTHLIYSHWHTDHIGAASVFGPNVEIVAHDITKELLERFPDPNRPVPTVTFDKDHLLVVGGVTLELSYKGENHCPGNIFIYAPAQKVLTVIDIVSPGSATFMHCDASQNITGWYEAQKQLMEYEFDFLVAGHHMKYGTPETVAASIEYFQDVLDGAQAAVDRFSRSDALVSILEGAGWDQVFSGTENWINSMANFATKYVLEKKSSNGQLWSERLAGVTTQTKYHAYTVLESIRLERPRPNYRLRGENPPPFLT	failed
MCDRTSKNENRILTISALLASGFAAGGMVLGLLVGSIVIVFDGVYSLVSLLLTLLSLAASSYISKPSKSVFPFGKAVLEPIVIAIKAAVILVVVCFSLYSAISALMTGGREVDTSIATIFGLVNVIGCGYAWWFMAKKSRRFSSGLIDAEKKQWQMDTLLSVAVTVGFIAAWLVSLTPFAHYAVYADPMMMLLMGFYFLKVPFDMLCGALRELLMMTPSKELCQVVGNDVLEIEKVSDHQLKLAGITKVGQELRVNIDLHVDDDMIELDTLEQTRKQLTTRLSKHRFKLQLNLNVANC	failed
MCFPYNKTVAMLAVLMLSGCEDQAALRNADNPPSPPAARMTEFGPGTEDATITQHPYMDNRHAINEGKRLYSWFNCTGCHAHGGGGMGPPLMDKQWIYGSEPAQIFASIMEGRPNGMPAFHGKIPEQEVWKIVAYVRSLGGLSKDLPAGASSRPLQEQAESDKREVKTP	failed
MCFSFIMPPAMADILDIWAVDSQIASDGSIPVDFLLPTGIYIQLEVPREATISYIKQMLWKQVHNYPMFNLLMDIDSYMFACVNQTAVYEELEDETRRLCDVRPFLPVLKLVTRSCDPGEKLDSKIGVLIGKGLHEFDSLKDPEVNEFRRKMRKFSEEKILSLVGLSWMDWLKQTYPPEHEPSIPENLEDKLYGGKLIVAVHFENCQDVFSFQVSPNMNPIKVNELAIQKRLTIHGKEDEVSPYDYVLQVSGRVEYVFGDHPLIQFQYIRNCVMNRALPHFILVECCKIKKMYEQEMIAIEAAINRNSSNLPLPLPPKKTRIISHVWENNNPFQIVLVKGNKLNTEETVKVHVRAGLFHGTELLCKTIVSSEVSGKNDHIWNEPLEFDINICDLPRMARLCFAVYAVLDKVKTKKSTKTINPSKYQTIRKAGKVHYPVAWVNTMVFDFKGQLRTGDIILHSWSSFPDELEEMLNPMGTVQTNPYTENATALHVKFPENKKQPYYYPPFDKIIEKAAEIASSDSANVSSRGGKKFLPVLKEILDRDPLSQLCENEMDLIWTLRQDCREIFPQSLPKLLLSIKWNKLEDVAQLQALLQIWPKLPPREALELLDFNYPDQYVREYAVGCLRQMSDEELSQYLLQLVQVLKYEPFLDCALSRFLLERALGNRRIGQFLFWHLRSEVHIPAVSVQFGVILEAYCRGSVGHMKVLSKQVEALNKLKTLNSLIKLNAVKLNRAKGKEAMHTCLKQSAYREALSDLQSPLNPCVILSELYVEKCKYMDSKMKPLWLVYNNKVFGEDSVGVIFKNGDDLRQDMLTLQMLRLMDLLWKEAGLDLRMLPYGCLATGDRSGLIEVVSTSETIADIQLNSSNVAAAAAFNKDALLNWLKEYNSGDDLDRAIEEFTLSCAGYCVASYVLGIGDRHSDNIMVKKTGQLFHIDFGHILGNFKSKFGIKRERVPFILTYDFIHVIQQGKTGNTEKFGRFRQCCEDAYLILRRHGNLFITLFALMLTAGLPELTSVKDIQYLKDSLALGKSEEEALKQFKQKFDEALRESWTTKVNWMAHTVRKDYRS	failed
MCLPIHVKYDWFCRLCKTGRTLRPTSLQRGRAMASLTLRHLAGNTWLIPAPAAIGVYVRNGRAVLIDSGNDEEAGRQILKLLNGQGWTLDLIVNTHSNADHIGGNAFLQKKTGCRVAATVPEAAFIANPILEPSFLYGGYPVKALRNKFLMAKPSTVTDIIEAIGPILDTGLEAVPLAGHFFGMIGIRTPDGVLFAADSLFPETILAKYPIFYLYDIREHLASLQRLRELEAAIYVPSHGAPSPEILPLIEANEQRVRQTVSFVESCCTDAPASFETVLERVCGEYGIVLDPNQYVLVGNTIRSILAFLSEEGRLAMIFDGGRLLWGTAADQREA	failed
MCNAKDIYTAGWALVVMAGLVSLAIQVYLGYFRLDDMVKHLSRCRVIAIRMPLLGKDPLSRFFMLLCIGALFAMPHLFLRNGGLNVKDYRKFPLGLKWLINLFQFAALVAVIAFLVLWWVSRHL	failed
MCPAVVPDDPHALTAPSPWVVRWAAPLPAGARVLDVACGSGRHVRWLAARGLRVTGIDRDADALSGLSEAADTLIADIEDGLWPLPAEAVFDAVVVTNYLYRPLWPRLLACVAPGGRLIYETFAVGNETVGKPSNPAFLLAPGELLEAVRGQLRVIGYEDGFIAAPREAYVQRLCAVRESAGAQARRYAL	failed
MCPEFQRKAAGAPRMGAMLARCVLTAALALQAAAAARAVEIEIGVASRGVVDGLEFVQFSADERTMATTHWGNVVHLWDLKTLRVRSSVSVANRDFDFDLSPDGRALAVWNEEGKGEIELYDTDNGQPARALPAPRLPQGESRRGRSLVYRDDGTLEFVSHGWIGGHARKAYLLAVPAGQPRAAETPLPALVNSVAFRKSAVMDQGRLLLAGVDGADDELAIMDIASGRMLAREPGFRIASYAADARRAVFVEADGKQRILAFDFSSRSLSTLPRWTGSGKFQPYRFVAGTRFLVLAPDEPDASTRRAAPGIYDLQTRRLHRLPPDADPGSIDVWGATASYVLCNPDHTACQAEVADLAISRKLGTFAVQPSADFRTWISPSGSMVVVGGADDGTMMVWSVKEQRVIGPNLEHHHHHH	failed
MCRNNREDIFNLVPINIISSKFHVKVIGGGKAATIKVKGLLEKGCYVHILSKEFSKEILDIENKNLKLEKGNYYKEFIKDAHLIIIAVNESSLVYKISKDCEKEYKLYLNAANYKEGMVAIPYSRCYENLGFSISSKLGSPRITRAIGEEVSNIIKENDIYSIKVAKIREKAKKEELKDNIIEIISSKEFKNAILEKREYEYLKNLLGEELANSLTLGLK	failed
MCSKQSANQQISYRQTAEATLDKGMDNQPEAPYWFPKQLLKWQLSKDKAAKYNTASVPLAKRIDKWQLPTVNKTQDPKMKVVALSIMNSSTSGNAPRGINTFDANVFSNWQYIDQLVYWGGSAGEGLIVPPTADVIDSAHKNGVPVLGTVFFPQVVSGGKLKWLNDFLKQDADGHFPMADKLVAVAKAYGFDGWFINQETDPEVKSFDSASTGKTATSSTSNGLSKKHAQLMQQLIKEYKQKAGSKLDLMWYDSMTKDGKMDWQNALTKENQSYLVDANMKPVADSMFLNFWWTKKRLASQELLKKSHERAEKLGISPYNLFAGIDVQADGTATPVRWNLFANKQHVPYTSLGLYAPDWTHASSDTVDEFQAKEGALWVNDQNDPSRSIPSTTSTHWPGVSTYAVEQSAITKQPFVTNFSLGNGYNYFIKLEHHHHHH	failed
MCSSDSLQLHNVFVYGSFQDPDVINVMLDRTPEIVSATLPGFQRFRLKGRLYPCIVPSEKGEVHGKVLMGVTSDELENLDAVEGNEYERVTVGIVREDNSEKMAVKTYMWINKADPDMFGEWNFEEWKRLHKKKFIETFKKIMECKKKPQGQGNDDISHVLREDQ	not failed
MCTIFKVNGKIHIKELISSIVIAEGVGALSGFLSMSNVKNYSNLKKPFFSPPGFIFPIVWVILYFLMAVAAYRIWVIGKEESKDVKKALVLYAVQLLFNFLWSIIFFKFNCYGAAFIELLILLFFILCATFQFHKHDKVAAFLMIPYILWVSFAGILNFAIWFLNRNSST	failed
MDAADCYLEGNADAVEFCPHESYANLLAASTYTLQEGDCPSRSGSVYLFDVGDVEDVGLNLIQKIDTAGVFDIRWSRGGDGGDVALAQADADGCLIVYKIDETESKGTLREVSGKRISSSMCLCLDWDPSSTSIVVGLSDGSASVVSFTDSNLETVQEWKGHDFELWTASFDLNNPNLVYTGSDDCKFSCWDIRDSPADNRVFQNSKVHTMGVCCISSNPSDPYSIFTGSYDETLRVWDTRSVSRPLNETSVSLGGGVWRIKHHPSLSGVVLAACMHNGFALAKVSDGKGEVLESYNKHHSLAYGADWYRGKDQKQSVVATCSFYDRLLRVWMPITDFSTRCS	failed

— a protein production outcome set (Wang et al. 2014)
